From US11932683B2, “Cellular factors involved in the cytotoxicity of Staphylococcus aureus leukocidins: novel therapeutic targets” (NEW YORK UNIVERSITY, priority 2013, dated 2024)

Assays:
CXCR2 [1] = target: T1, CXCR2 (Homo sapiens, UniProt P25025); test: Toxin susceptibility of HEK293T cells transfected with chemokine receptor CXCR2; assay type: cell-based; design: expressed in transfected cells; host or cells: HEK293T; settings: viability (600 nM) or ethidium bromide permeability (1 hr; HlgAB/HlgCB 20 μg/ml)
T1 sequence (P25025 1-360): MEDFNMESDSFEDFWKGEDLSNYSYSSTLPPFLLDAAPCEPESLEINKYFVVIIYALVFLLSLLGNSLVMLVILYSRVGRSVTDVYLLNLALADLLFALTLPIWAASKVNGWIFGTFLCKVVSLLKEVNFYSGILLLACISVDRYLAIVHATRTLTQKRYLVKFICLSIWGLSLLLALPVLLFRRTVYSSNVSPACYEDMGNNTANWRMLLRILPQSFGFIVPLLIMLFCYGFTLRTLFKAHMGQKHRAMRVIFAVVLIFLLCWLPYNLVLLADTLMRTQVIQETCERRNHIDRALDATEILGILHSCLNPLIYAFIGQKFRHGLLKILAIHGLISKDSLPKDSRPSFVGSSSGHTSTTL
Protocol: Cell culture conditions and viral transductions. Primary human cells and THP-1 were cultured at 37° C. with 5% CO2 in RPMI supplemented with 10% fetal bovine serum (FBS; Atlanta Biologicals) and penicillin (100 U ml-1) and streptomycin (0.1 mg ml-1) (Mediatech) unless stated otherwise. Overexpression and lentiviral-based knockdown of Cxcr2 or non-target shRNA were performed as previously described (Wan et al., “Cytokine Signals Through PI-3 Kinase Pathway Modulate Th17 Cytokine Production by CCR6+ Human Memory T Cells,” J. Exp. Med. 208:1875-1887 (2011), which is hereby incorporated by reference in its entirety) and maintained in 1.3 μg ml-1 puromycin. HEK293T cells were cultured at 37° C. with 5% CO2 in DMEM (Cellgro) and supplemented as described above.
(§1) Leukotoxin treatments. HEK293T cells, THP-1, primary human PBMCs and primary murine peritoneal exudate cells were treated with LukE, LukD or LukED as previously described (Alonzo et al., “CCR5 is a Receptor for Staphylococcus aureus Leukotoxin ED,” Nature 493:51-55 (2013), which is hereby incorporated by reference in its entirety). In all experiments 1-2×10^5 cells were seeded into 96-well plates. […]

CXCR1 [2] = target: T2, CXCR1 (Homo sapiens, UniProt P25024); test: Toxin susceptibility of HEK293T cells transfected with chemokine receptor CXCR1; assay type: cell-based; design: expressed in transfected cells; host or cells: HEK293T; settings: viability (600 nM) or ethidium bromide permeability (1 hr; HlgAB/HlgCB 20 μg/ml)
T2 sequence (P25024 1-350): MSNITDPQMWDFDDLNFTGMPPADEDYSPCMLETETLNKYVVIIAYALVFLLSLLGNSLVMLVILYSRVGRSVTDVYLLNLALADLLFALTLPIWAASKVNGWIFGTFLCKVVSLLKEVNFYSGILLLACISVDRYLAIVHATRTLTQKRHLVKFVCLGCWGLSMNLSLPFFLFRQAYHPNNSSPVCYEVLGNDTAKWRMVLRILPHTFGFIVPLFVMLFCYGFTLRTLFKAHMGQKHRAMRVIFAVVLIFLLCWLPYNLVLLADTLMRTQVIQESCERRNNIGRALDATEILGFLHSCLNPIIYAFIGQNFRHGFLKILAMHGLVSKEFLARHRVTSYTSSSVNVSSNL

DARC = target: T3, DARC (Homo sapiens, UniProt Q16570); test: Toxin susceptibility of HEK293T cells transfected with DARC; assay type: cell-based; settings: ethidium bromide permeability (1 hr; HlgAB/HlgCB 20 μg/ml)
T3 construct: expressed in transfected cells; host or cells: HEK293T
T3 sequence (Q16570 1-336): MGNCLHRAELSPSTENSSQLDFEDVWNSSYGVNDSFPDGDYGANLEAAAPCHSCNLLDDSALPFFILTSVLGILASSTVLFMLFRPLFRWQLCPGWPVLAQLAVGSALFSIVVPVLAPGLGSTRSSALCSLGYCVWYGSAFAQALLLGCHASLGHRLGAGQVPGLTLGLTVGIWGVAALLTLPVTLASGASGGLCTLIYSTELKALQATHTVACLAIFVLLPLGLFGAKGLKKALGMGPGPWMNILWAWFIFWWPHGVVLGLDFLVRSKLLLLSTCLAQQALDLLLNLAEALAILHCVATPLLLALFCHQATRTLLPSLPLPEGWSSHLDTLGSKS

human PMNs [3] = test: Viability of primary human neutrophils (PMNs) treated with leukotoxins; assay type: cell-based; settings: HlgA or hybrid mixed equimolar with HlgB; CellTiter; n=8 donors
[4] = test system: CXCR1 and CXCR2 activation on human PMNs; test: Calcium mobilization on PMNs (Fluo4-AM, flow cytometry); assay type: cell-based; settings: LukE 300 nM
Protocol: Measurements of calcium mobilization. CXCR1 and CXCR2 activation on human PMNs was evaluated using the fluorescent calcium indicator Fluo4-AM (Invitrogen) as previously described (Alonzo et al., “CCR5 is a Receptor for Staphylococcus aureus Leukotoxin ED,” Nature 493:51-55 (2013), which is hereby incorporated by reference in its entirety). Briefly, cells were incubated for 30 minutes at room temperature with 3 μM of Fluo4-AM in Hank's Balanced Salt Solution (HBSS) followed by three washes in HBSS and equilibration at 37° C. for 30 minutes. Baseline calcium levels were analyzed over time on a flow cytometer for 60 seconds. […] The mean fluorescent intensity over 5-second intervals was plotted for graphical display.

CXCR2 [5] = target: T1, CXCR2; test: Pulldown of His-tagged toxin with cell lysates containing HA-tagged CXCR2; assay type: binding; design: host or cells: HEK293T; settings: HA-tagged receptor lysate
Protocol: (§2) Biochemical assays to examine interactions between LukED and CXCR1 or CXCR2. HEK293T cells were transiently transfected with cDNAs encoding N-terminal HA-tagged CXCR1 or CXCR2 (Missouri S&T cDNA Resource Center) using Lipofectamine 2000 (Invitrogen). Forty-eight hours post transfection, cells were detached with PBS containing 5 mM EDTA and membrane proteins were solubilized (approximately 1×10^6 cells per condition) for 1 hour using lysis buffer (PBS+10mM imidazole (Fisher)+1% Brij 010 (Sigma)+1 mM PMSF (Thermo Scientific)+2× protease inhibitor pellets (Roche)). His-tagged LukE and LukD were incubated with equilibrated Ni-NTA resin (Qiagen) for 2 hours, followed by three washes in lysis buffer. Lysates and resin were then incubated together for 2 hours, followed by three washes in lysis buffer and final resuspension of resin in 45 μl of 4×SDS sample buffer. Protein samples were run on 10% SDS-PAGE gels at 80V, followed by transfer to nitrocellulose membranes (GE) for 1 hour at 1 Amp. Membranes were blocked with PBS+0.01% Tween-20+5% non-fat milk for 1 hour and incubated overnight at 4° C. with either anti-His antibody diluted at 1:3,000 in PBS+0.01% Tween-20 for toxins (Cell Sciences) or anti-HA antibody diluted at 1:1,000 in with PBS+0.01% Tween-20+5% non-fat milk for receptors (Covance). […]

human PMNs [6] = test: Binding and competition assays with GFP-LukE/GFP-LukD on PMNs, flow cytometry; settings: GFP-LukE 300 nM
Protocol: Binding and competition assays. For binding assays, increasing concentrations of GFP-LukE or GFP-LukD were added to 5×10^4 human PMNs and incubated for 30 minutes on ice, then washed once in FACS buffer and fixed for 15 minutes at room temperature followed by flow cytometric analysis. Mean fluorescence intensity (MFI) of GFP^+ cells was measured to establish the toxin concentration required to achieve saturable binding. For remaining competition assays, increasing concentrations of either LukE or LukS-PV were co-incubated with a constant saturable concentration of LukE-GFP (300 nM) for 30 minutes. Cells were washed once in FACS buffer, fixed for 15 minutes in FACS fixing buffer, washed again in FACS buffer, and binding was assessed by flow cytometry. The mean GFP fluorescent intensity is represented as % GFP^+, based on the maximal fluorescence observed upon incubation with 300 nM GFP-LukE. […] Cells were washed once in FACS buffer, fixed for 15 minutes in FACS fixing buffer, washed again in FACS buffer, and binding was assessed by flow cytometry as described above. Results for these assays were depicted graphically using GraphPad PRISM software (version 5.0f, GraphPad PRISM Software, Inc.).

CXCR1 [7] = target: T2, CXCR1; test: Pulldown of His-tagged toxin with cell lysates containing HA-tagged CXCR1; assay type: binding; design: host or cells: HEK293T; settings: HA-tagged receptor lysate
Protocol: as §2

CCR5^+ cells = settings: cited from earlier work
monocytes within PBMCs = test: LukED treatment of human PBMCs, CD14/CD3 flow cytometry; assay type: cell-based; settings: CCR5+-gated PBMC; LukED 75 nM plus MVC 100 ng/mL
Protocol: Isolation of PBMCs. Blood was obtained as buffy coats with the consent of de-identified donors from the New York Blood Center. PBMCs were isolated from blood using a Ficoll-Paque PLUS gradient (GE Amersham) and gated on CCR5^+ cells, followed by anti-CD3 and CD14 cell surface staining for lymphocyte and monocyte populations. Cells were then incubated with LukED (75 nM) in the presence or absence of maraviroc (MVC, 100 ng ml-1).
CCR5 inhibitor and ligands. Maraviroc was obtained through the AIDS Research and Reference Reagent Program, Division of AIDS (NIAID, NIH) and used at a final concentration of 100 ng ml-1.
FACS analysis. Cell staining was performed as described previously (Alonzo et al., “CCR5 is a Receptor for Staphylococcus aureus Leukotoxin ED,” Nature 493:51-55 (2013), which is hereby incorporated by reference in its entirety). FACS data were obtained using FACSDiva software on a LSRII flow cytometer (BD Biosciences). Data was analyzed using FlowJo software (Treestar).
as §1

human RBCs = test: LukED-mediated lysis of human red blood cells; assay type: cell-based; settings: n=3 donors

For “HlgAB: S. aureus γ-hemolysin bicomponent leukotoxin, HlgA (SEQ ID NO:6) plus HlgB (SEQ ID NO:16)”, the “susceptibility of CXCR2-transfected HEK293T cells to toxin” value (CXCR2 [1]) was “rendered cells susceptible”, the “susceptibility of CXCR1-transfected HEK293T cells to toxin” value (CXCR1 [2]) was “rendered cells susceptible” and the “susceptibility of DARC-transfected HEK293T cells to toxin” value (DARC) was “rendered cells susceptible”. The “cytotoxic activity against hPMNs” value (human PMNs [3]) was “exhibited potent cytotoxic activity against hPMNs”.

With “LukE: S. aureus Leukocidin E subunit, soluble protein SEQ ID NO:4” the “calcium mobilization on PMNs” value [4] was “unable to elicit calcium mobilization”, the “complex formation with CXCR2 (pulldown, immunoblot)” value (CXCR2 [5]) was “forms complexes with both CXCR1 and CXCR2” and the “competition with GFP-LukE binding to PMNs” value (human PMNs [6]) was “competed off”. For the same molecule, the “complex formation with CXCR1 (pulldown, immunoblot)” value (CXCR1 [7]) was “forms complexes with both CXCR1 and CXCR2”.

In the case of Maraviroc [reference compound], the “block of LukED mediated killing of CCR5+ cells” value (CCR5^+ cells) is listed as “known to block LukED mediated killing of CCR5^+ cells” and the “protection of monocytes from LukED-mediated death” value (monocytes within PBMCs) is listed as “does not protect monocytes from LukED-mediated death”.

B1: DARC: purified Duffy antigen receptor for chemokines (OriGene Technologies Inc.) (protein)
chain: T3 sequence (Q16570 1-336)
In the case of B1, the “inhibition of LukED-mediated lysis of RBCs” value (human RBCs) is reported as “fully neutralize LukED-mediated lysis of RBCs”.

B2: HlgA^LukE-DR4/HlgB: HlgA with its DR4 domain swapped with LukE DR4, mixed equimolar with HlgB (protein)
chain 1: ENKIEDIGQGAEIIKRTQDITSKRLAITQNIQFDFVKDKKYNKDALVVKMQGFISSRTTYSDLKKYPYIKRMIWPFQYNISLKTKDSNVDLINYLPKNKIDSADVSQKLGYNIGGNFQSAPSIGGSGSFNYSKTISYNQKNYVTEVESQNSKGVKWGVKANSFVTPNGQVSAYDQYLFAQSPNGPTGSAREYFAPDNQLPPLIQSGFNPSFITTLSHERGKGDKSEFEITYGRNMDATYAYVTRHRLAVDRKHDAFKNRNVTVKYEVNWKTHEVKIKSITPK
chain 2: EGKITPVSVKKVDDKVTLYKTTATADSDKFKISQILTFNFIKDKSYDKDTLVLKATGNINSGFVKPNPNDYDFSKLYWGAKYNVSISSQSNDSVNVVDYAPKNQNEEFQVQNTLGYTFGGDISISNGLSGGLNGNTAFSETINYKQESYRTTLSRNTNYKNVGWGVEAHKIMNNGWGPYGRDSFHPTYGNELFLAGRQSSAYAGQNFIAQHQMPLLSRSNFNPEFLSVLSHRQDGAKKSKITVTYQREMDLYQIRWNGFYWAGANYKNFKTRTFKSTYEIDWENHKVKLLDTKETENNK
modifications: left off: small tags and cut ends
For B2, the “cytotoxic activity against hPMNs” value (human PMNs [3]) was “exhibited potent cytotoxic activity against hPMNs”.
